Measurements as given in US20110143993A1, “ENDOTHELIAL BASEMENT MEMBRANE TARGETING PEPTIDE LIGANDS” (The Brigham and Women's Hospital, Inc., priority 2009, published 2011).
No end group written: not given here.

Key:
[1] = target: Matrigel growth factor reduced LDEV free (basement membrane extract rich in collagen IV and laminin); assay: competition ELISA: synthetic peptide (10^-5-10^-10 M) against 10^9 pfu cognate phage clone on Matrigel-coated plate, anti-M13/ABTS
[2] = target: Matrigel growth factor reduced LDEV free (basement membrane extract rich in collagen IV and laminin); assay: competition of phage-displayed peptide against synthetic peptide on Matrigel
[3] = target: human collagen IV (human) (UniProt P02462); assay: phage titer count of eluted phage, input 10^12/mL p.f.u., against random library R0, n=3

B1: synthetic peptide modeled after phage clone C-10 (KIWKLPQ with C-terminal GGGC linker, amidated) (peptide)
peptide: KIWKLPQGGGC-NH2
For B1, the IC50 [1] was 917 nM.

B2: synthetic peptide modeled after phage clone C-11 (…-Am) (peptide)
peptide: KLWVLPKGGGC-NH2
In the case of B2, the IC50 [1] is reported as 117 nM and the IC50 [2] is reported as 114 nM.

B3: phage clone C-11 (KLWVLPK displayed on pIII of M13 phage) (peptide, not shown: large carriers)
peptide: KLWVLPK
Work on B3 yielded a fold binding compared to the library (R0), phage titer [3] of 900 fold.

B4: synthetic peptide modeled after phage clone A-8 (KVWSLPQ with C-terminal GGGC linker, amidated) (peptide)
peptide: KVWSLPQGGGC-NH2
B4 was tested, and the IC50 [1] was 1200 nM.

B5: synthetic peptide modeled after phage clone A-9 (KIFVWPY with C-terminal GGGC linker, amidated) (peptide)
peptide: KIFVWPYGGGC-NH2
B5 showed an IC50 [1] of 551 nM.
